Literature values in publication PMC12053642, “Oral PRI-002 treatment in patients with MCI or mild AD: a randomized, double-blind phase 1b trial” (Nature Communications, 2025).

B1: lecanemab: anti-amyloid therapeutic antibody, claimed to preferentially target soluble Aβ protofibrils (antibody, chains of the INN, looked up, V domains shown)
VH: EVQLVESGGGLVQPGGSLRLSCSASGFTFSSFGMHWVRQAPGKGLEWVAYISSGSSTIYYGDTVKGRFTISRDNAKNSLFLQMSSLRAEDTAVYYCAREGGYYYGRSYYTMDYWGQGTTVTVSS
VL: DVVMTQSPLSLPVTPGAPASISCRSSQSIVHSNGNTYLEWYLQKPGQSPKLLIYKVSNRFSGVPDRFSGSGSGTDFTLRISRVEAEDVGIYYCFQGSHVPPTFGPGTKLEIK

System: early AD patients
Set-up: ADAS-cog: dose or concentration left out as unconfirmed
Settings: cited from earlier work; for deceleration of progression measured by CDR-SB versus placebo: over 18 months, on average
Description: After two decades of setbacks, the United States Food and Drug Administration (USFDA) full approvals for lecanemab[1] and donanemab[2] presents the beginning of a new decade for AD patients with several more drug candidates holding promise for marketing authorisation in the foreseeable future.

| Molecule | ADAS-Cog13 and CDR-SB (700 mg for the first 3 doses and 1400 mg thereafter i.v. every 4 weeks, after 12 weeks of treatment) | deceleration of progression measured by CDR-SB versus placebo | slowed decline on measures of cognition and function than placebo (early AD, at 18 months (CDR-SB, ADAS-cog14, ADCOMS, ADCS-MCI-ADL)) [%] | ADAS-cog (from week 12, most prominent at 6 months) |
| --- | --- | --- | --- | --- |
| donanemab: anti-amyloid therapeutic antibody [reference compound] | significant improvement | up to 36% | – | – |
| B1 | – | up to 36% | 27 | symptomatic improvement |
